# Test results reported in patent publication US10052364B2, “Osteocalcin as a treatment for cognitive disorders” (THE TRUSTEES OF COLUMBIA UNIVERSITY IN THE CITY OF NEW YORK, priority 2013, dated 2018).
# Test system: brainstem neurons, neurons of the locus coeruleus, GABAergic interneurons of the hindbrain
# Assay: Electrophysiology, whole cell current clamp recording in brain slices
# Format: cell-based, mouse
# Method: Brain slice preparations and electrophysiological recordings were performed according to methods known in the art. Briefly, WT mice were anesthetized with ether and then decapitated. The brains were rapidly removed and immersed in an oxygenated bath solution at […] containing (in mM): sucrose 220, KCl 2.5, CaCl2 1, MgCl2 6, NaH2PO4 1.25, NaHCO3 26, and glucose 10 pH 7.3 with NaOH. Coronal slices (350 μm thick) containing dorsal raphe (DR) were cut on a vibratome and maintained in a holding chamber with artificial cerebrospinal fluid (ACSF) (bubbled with 5% CO2 and 95% O2) containing (in mM): NaCl 124, KCl 3, CaCl2 2, MgCl2 2, NaH2PO4 1.23, NaHCO3 26, glucose 10, pH 7.4 with NaOH, and were transferred to a recording chamber constantly perfused with bath solution (330 C) at 2 ml/min after at least a 1 hr recovery. Whole-cell current clamp was performed to observe action potentials in DR serotoninergic (5-HT) neurons with a Multiclamp 700A amplifier (Axon instrument, CA). Patch pipettes with a tip resistance of 4-6 MS2 were made of borosilicate glass (World Precision Instruments) with a Sutter pipette puller (P-97) and filled with a pipette solution containing (in mM): K-gluconate (or Cs-gluconate) 135, MgCl2 2, HEPES 10, EGTA 1.1, Mg-ATP 2, Na2-phosphocreatine 10, and Na2-GTP 0.3, pH 7.3 with KOH. After a giga-Ohm (GΩ) seal and whole-cell access were achieved, the series resistance (between 20 and 40 MΩ) was partially compensated by the amplifier. […] Electrophysiological data were analyzed with Axograph 4.9 and plotted with Igor Pro software (WaveMetrics, Lake Oswego, Oreg.).
# To determine if osteocalcin acts directly on neurons to modulate neurotransmitter synthesis, several types of assays were performed. […] Third, to further confirm that osteocalcin signals in neurons of the hindbrain, calcium flux in MPHN treated with undercarboxylated or carboxylated osteocalcin (FIG. 3F) was measured. […]
molecule,measurement,setting,value
"uncarboxylated osteocalcin: Recombinant osteocalcin bacterially produced, cleaved from the GST subunit; completely undercarboxylated at all three sites (protein, listed as Homo sapiens, uncarboxylated, Recombinant osteocalcin bacterially produced, cleaved from the GST subunit; completely undercarboxylated at all three sites) MRALTLLALLALAALCIAGQAGAKPSGAESSKGAAFVSKQEGSEVVKRPRRYLYQWLGAPVPYPDPLEPRREVCELNPDCDELADHIGFQEAYRRFYGPV",action potential frequency of the GABAergic interneurons of the hindbrain,,inhibits
same,action potential frequency in neurons of the locus coeruleus,whole cell current clamp,decreases
same,action potential frequency of brainstem neurons,whole cell current clamp,activates
